Experimental data from article doi:10.1101/2022.04.07.487446 (bioRxiv, 2022).

Biological target: FANCD2 (human, UniProt Q9BXW9 1-1451)
Test: cryo-EM structure

Chain of FANCD2 (Q9BXW9 whole entry): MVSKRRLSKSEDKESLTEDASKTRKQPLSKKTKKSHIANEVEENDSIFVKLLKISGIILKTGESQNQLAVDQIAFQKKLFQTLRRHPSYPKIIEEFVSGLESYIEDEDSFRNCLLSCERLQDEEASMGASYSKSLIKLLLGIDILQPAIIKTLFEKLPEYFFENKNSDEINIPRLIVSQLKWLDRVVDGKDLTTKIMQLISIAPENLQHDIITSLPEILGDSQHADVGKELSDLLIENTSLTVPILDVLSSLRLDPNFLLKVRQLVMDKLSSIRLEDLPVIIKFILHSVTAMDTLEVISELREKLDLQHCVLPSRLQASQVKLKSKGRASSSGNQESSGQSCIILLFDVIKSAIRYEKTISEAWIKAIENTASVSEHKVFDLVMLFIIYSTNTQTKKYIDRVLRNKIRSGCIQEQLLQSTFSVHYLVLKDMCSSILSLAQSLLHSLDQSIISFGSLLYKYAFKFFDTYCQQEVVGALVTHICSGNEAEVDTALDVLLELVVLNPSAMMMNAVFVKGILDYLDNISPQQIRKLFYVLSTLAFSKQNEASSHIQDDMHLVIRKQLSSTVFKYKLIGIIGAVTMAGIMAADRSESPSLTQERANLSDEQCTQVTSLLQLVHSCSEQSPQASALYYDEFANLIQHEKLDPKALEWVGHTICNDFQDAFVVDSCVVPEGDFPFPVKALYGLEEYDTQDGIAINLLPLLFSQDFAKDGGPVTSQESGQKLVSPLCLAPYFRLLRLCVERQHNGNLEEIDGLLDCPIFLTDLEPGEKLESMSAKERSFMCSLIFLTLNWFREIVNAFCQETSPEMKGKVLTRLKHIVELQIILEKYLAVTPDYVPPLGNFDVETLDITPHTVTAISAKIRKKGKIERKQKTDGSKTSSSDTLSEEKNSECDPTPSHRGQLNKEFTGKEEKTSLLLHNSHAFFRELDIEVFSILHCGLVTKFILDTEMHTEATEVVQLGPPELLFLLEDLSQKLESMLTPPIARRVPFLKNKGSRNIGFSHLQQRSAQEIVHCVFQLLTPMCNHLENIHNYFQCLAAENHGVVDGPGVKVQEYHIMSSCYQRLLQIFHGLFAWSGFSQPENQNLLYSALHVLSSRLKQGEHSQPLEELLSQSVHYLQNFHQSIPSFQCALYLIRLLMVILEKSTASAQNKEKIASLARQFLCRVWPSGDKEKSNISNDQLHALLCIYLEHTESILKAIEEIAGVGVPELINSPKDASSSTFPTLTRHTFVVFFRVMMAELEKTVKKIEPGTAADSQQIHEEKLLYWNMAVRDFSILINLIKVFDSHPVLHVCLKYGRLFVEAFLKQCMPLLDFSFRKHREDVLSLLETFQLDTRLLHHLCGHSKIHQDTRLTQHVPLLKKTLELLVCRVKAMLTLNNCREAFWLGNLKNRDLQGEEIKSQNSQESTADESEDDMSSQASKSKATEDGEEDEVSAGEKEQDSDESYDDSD

B1: ubiquitinated His6-V5-FANCI (natural protein)
chain 1: MDQKILSLAAEKTADKLQEFLQTLREGDLTNLLQNQAVKGKVAGALLRAIFKGSPCSEEAGTLRRRKIYTCCIQLVESGDLQKEIASEIIGLLMLEAHHFPGPLLVELANEFISAVREGSLVNGKSLELLPIILTALATKKENLAYGKGVLSGEECKKQLINTLCSGRWDQQYVIQLTSMFKDVPLTAEEVEFVVEKALSMFSKMNLQEIPPLVYQLLVLSSKGSRKSVLEGIIAFFSALDKQHNEEQSGDELLDVVTVPSGELRHVEGTIILHIVFAIKLDYELGRELVKHLKVGQQGDSNNNLSPFSIALLLSVTRIQRFQDQVLDLLKTSVVKSFKDLQLLQGSKFLQNLVPHRSYVSTMILEVVKNSVHSWDHVTQGLVELGFILMDSYGPKKVLDGKTIETSPSLSRMPNQHACKLGANILLETFKIHEMIRQEILEQVLNRVVTRASSPISHFLDLLSNIVMYAPLVLQSCSSKVTEAFDYLSFLPLQTVQRLLKAVQPLLKVSMSMRDCLILVLRKAMFANQLDARKSAVAGFLLLLKNFKVLGSLSSSQCSQSLSVSQVHVDVHSHYNSVANETFCLEIMDSLRRCLSQQADVRLMLYEGFYDVLRRNSQLANSVMQTLLSQLKQFYEPKPDLLPPLKLEACILTQGDKISLQEPLDYLLCCIQHCLAWYKNTVIPLQQGEEEEEEEEAFYEDLDDILESITNRMIKSELEDFELDKSADFSQSTSIGIKNNICAFLVMGVCEVLIEYNFSISSFSKNRFEDILSLFMCYKKLSDILNEKAGKAKTKMANKTSDSLLSMKFVSSLLTALFRDSIQSHQESLSVLRSSNEFMRYAVNVALQKVQQLKETGHVSGPDGQNPEKIFQNLCDITRVLLWRYTSIPTSVEESGKKEKGKSISLLCLEGLQKIFSAVQQFYQPKIQQFLRALDVTDKEGEEREDADVSVTQRTAFQIRQFQRSLLNLLSSQEEDFNSKEALLLVTVLTSLSKLLEPSSPQFVQMLSWTSKICKENSREDALFCKSLMNLLFSLHVSYKSPVILLRDLSQDIHGHLGDIDQDVEVEKTNHFAIVNLRTAAPTVCLLVLSQAEKVLEEVDWLITKLKGQVSQETLSEEASSQATLPNQPVEKAIIMQLGTLLTFFHELVQTALPSGSCVDTLLKDLCKMYTTLTALVRYYLQVCQSSGGIPKNMEKLVKLSGSHLTPLCYSFISYVQNKSKSLNYTGEKKEKPAAVATAMARVLRETKPIPNLIFAIEQYEKFLIHLSKKSKVNLMQHMKLSTSRDFKIKGNILDMVLREDGEDENEEGTASEHGGQNKEPAKKKRKK
chain 2: […]
  binding result: binds
